In patent publication US20030059769, “High affinity nucleic acid ligands to lectins” (published 2003):

Legend:
[1] = molecular target: T1, L-selectin on PBMC / lymphocytes (Homo sapiens, UniProt P14151 P14151:39-372); test: flow; half-saturation on human lymphocytes; divalent cation dependent; conditions: label: 32P or 5'-fluorescein (cells); hairpin
T1 sequence: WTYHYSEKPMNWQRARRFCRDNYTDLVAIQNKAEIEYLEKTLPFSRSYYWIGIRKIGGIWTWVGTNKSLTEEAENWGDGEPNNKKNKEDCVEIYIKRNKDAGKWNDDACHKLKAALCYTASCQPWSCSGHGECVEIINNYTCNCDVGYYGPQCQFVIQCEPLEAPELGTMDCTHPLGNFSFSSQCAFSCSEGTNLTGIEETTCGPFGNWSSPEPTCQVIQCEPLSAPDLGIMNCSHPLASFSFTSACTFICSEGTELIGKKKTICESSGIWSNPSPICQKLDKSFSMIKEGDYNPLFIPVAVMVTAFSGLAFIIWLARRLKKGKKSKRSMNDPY
Source text: (§1) A variety of monomeric nucleic acid ligands and multivalent Complexes have been examined in flow cytometry.

L-selectin (LS-Rg) [2] = molecular target: T2, L-selectin (LS-Rg) (Homo sapiens, UniProt P14151 P14151:39-332); test: inhibition; sialyl-LewisX competition ELISA; conditions: tags: human IgG2 Fc fusion; chain copies: 2 (stated dimer)
T2 sequence: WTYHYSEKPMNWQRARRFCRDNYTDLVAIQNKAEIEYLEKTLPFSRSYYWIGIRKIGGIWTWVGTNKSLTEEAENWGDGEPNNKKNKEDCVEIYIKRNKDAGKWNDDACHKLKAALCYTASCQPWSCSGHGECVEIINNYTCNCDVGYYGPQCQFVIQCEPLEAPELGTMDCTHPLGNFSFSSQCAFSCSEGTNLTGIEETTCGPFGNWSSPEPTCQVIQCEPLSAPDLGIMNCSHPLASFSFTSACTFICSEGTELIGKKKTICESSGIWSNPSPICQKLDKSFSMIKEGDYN
Protocol: SLe^X-BSA (Oxford GlycoSystems, Oxford, UK) in 1X PBS, without CaCl₂, and MgCl₂, (GIBCO/BRL) was immobilized at 100 ng/well onto a microtiter plate by overnight incubation at […]. The wells were blocked for 1 h with the assay buffer consisting of 20 mM HEPES, 111 mM NaCl, 1 mM CaCl₂, 1 mM MgCl₂, 5 mM KCl, 8.9 mM NaOH, final pH 8, and 1% globulin-free BSA (Sigma). The reaction mixtures, incubated for 90 min with orbital shaking, contained 5 nM L-Selectin-Rg, a 1:100 dilution of anti-human IgG-peroxidase conjugate (Sigma), and 0 - 50 ruM of competitor in assay buffer. After incubation, the plate was washed with BSA-free assay buffer to remove unbound chimera-antibody complex and incubated for 25 min with O-phenylenediamine dihydrochloride peroxidase substrate (Sigma) by shaking in the dark at 22°0 C. Absorbance was read at 450 nm on a Bio-Kinetics Reader, Model EL312e (Bio-Tek Instruments, Laguna Hills, Calif.). Values shown represent the mean ±s.e from duplicate, or triplicate, samples from one representative experiment.
Sialyl Lewis^X is the minimal carbohydrate ligand bound by selecting.

[3] = molecular target: T1, L-selectin on PBMC / lymphocytes; test: flow; half-saturation
Source text: as §1

soluble L-selectin [4] = molecular target: T3, soluble L-selectin (Homo sapiens, UniProt P14151 P14151:39-332); test: filter; binding undetectable, 37 C; conditions: tags: R&D Systems
T3 sequence: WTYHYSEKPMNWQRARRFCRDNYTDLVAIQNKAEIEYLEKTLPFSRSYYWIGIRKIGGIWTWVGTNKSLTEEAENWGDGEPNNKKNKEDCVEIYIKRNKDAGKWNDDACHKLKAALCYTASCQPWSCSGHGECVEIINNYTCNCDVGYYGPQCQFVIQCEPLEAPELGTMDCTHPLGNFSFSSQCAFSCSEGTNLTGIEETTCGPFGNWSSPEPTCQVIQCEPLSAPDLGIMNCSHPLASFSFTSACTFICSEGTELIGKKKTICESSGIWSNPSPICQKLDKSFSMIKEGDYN

P-selectin (PS-Rg) [5] = molecular target: T4, P-selectin (PS-Rg) (Homo sapiens, UniProt P16109 P16109:42-321); test: filter; HSMC; SLeX IC50 2 nM; conditions: tags: human IgG1 Fc fusion; chain copies: dimer; hairpin
T4 sequence (P16109 42-321, one chain of several): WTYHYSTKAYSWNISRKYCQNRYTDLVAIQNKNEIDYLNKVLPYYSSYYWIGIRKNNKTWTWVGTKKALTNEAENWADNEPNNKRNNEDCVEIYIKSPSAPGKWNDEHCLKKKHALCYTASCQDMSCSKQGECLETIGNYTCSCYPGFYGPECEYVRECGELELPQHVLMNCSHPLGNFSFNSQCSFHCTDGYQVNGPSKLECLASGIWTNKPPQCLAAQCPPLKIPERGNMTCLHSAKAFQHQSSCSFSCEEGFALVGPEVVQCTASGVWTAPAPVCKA

[6] = molecular target: P-selectin on activated platelets (Homo sapiens, UniProt P16109 P16109:42-830); test: flow; biotinylated, SA-PE; divalent cation dependent; blocked by G1 antibody; conditions: hairpin
Chain of P-selectin on activated platelets (P16109 42-830, one chain of several): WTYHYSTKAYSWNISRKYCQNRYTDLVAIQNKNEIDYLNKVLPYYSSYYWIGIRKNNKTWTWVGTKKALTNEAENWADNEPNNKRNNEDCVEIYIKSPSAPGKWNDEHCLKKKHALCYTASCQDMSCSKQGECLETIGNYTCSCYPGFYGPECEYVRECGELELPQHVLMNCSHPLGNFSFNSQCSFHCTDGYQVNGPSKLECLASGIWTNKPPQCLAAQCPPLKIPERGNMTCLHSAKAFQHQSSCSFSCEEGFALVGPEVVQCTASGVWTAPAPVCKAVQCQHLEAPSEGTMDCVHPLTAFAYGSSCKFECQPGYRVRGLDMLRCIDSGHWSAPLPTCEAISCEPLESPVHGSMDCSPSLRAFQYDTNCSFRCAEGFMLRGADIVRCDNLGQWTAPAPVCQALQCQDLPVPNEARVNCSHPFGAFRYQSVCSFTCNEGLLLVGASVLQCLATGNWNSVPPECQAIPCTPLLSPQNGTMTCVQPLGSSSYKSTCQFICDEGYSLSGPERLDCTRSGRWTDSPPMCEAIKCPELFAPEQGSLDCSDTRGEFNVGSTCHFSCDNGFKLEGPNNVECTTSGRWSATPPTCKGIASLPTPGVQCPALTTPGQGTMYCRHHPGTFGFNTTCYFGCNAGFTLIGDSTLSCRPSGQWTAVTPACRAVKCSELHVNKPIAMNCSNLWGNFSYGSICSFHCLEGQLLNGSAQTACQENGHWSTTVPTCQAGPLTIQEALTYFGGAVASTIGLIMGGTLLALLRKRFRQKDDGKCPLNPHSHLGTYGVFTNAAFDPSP
Protocol: To detect oligonucleotide ligand binding, 15 μl BB+ containing ligand conjugated to either FITC or biotin was incubated 20-30 minutes at 4° C. with 10 μl platelet suspension. The FITC-figand incubations were diluted to 200 μl with BB+ and analyzed on a FACSCaliber flow cytometer. The biotinylated-ligand reactions were incubated with streptavidin-phycoehrin (SA-PE) (Becton Dickinson) for 20 minutes at 4° C., before dilution and analysis. Wash steps with 500 μl BB+ and 700 ×g spins have been used without compromising the quality of the results.
Since the P-selectin ligands were isolated against purified protein, their ability to bind P-selectin presented in the context of a cell surface was determined in flow cytometry experiments with activated human platelets. Platelets were gated by side scatter and CD61 expression. […] The expression of P-selectin was monitored with anti-CD62P monoclonal antibody (Becton Dickinson).

[7] = molecular target: T1, L-selectin on PBMC / lymphocytes; test: flow; competition with FITC-LD201T1
Protocol: Binding of evolved ligands to L-selectin presented in the context of a cell surface was tested by flow cytometry experiments with human lymphocytes. Briefly, peripheral blood mononuclear cells (PBMC) were purified on histoplaque by standard techniques. […] Fluorescent staining of cells was quantified on a FACSCaliber fluorescent activated cell sorter (Becton Dickinson, San Jose, Calif.). The affinity of the 2′-F competitor was calculated from the flurorescence inhibition curves.
The ability of full length 2′-F ligands to bind to L-selectin presented in the context of a cell surface was tested by competition-flow cytometry experiments with human peripheral blood lymphocytes.

P-selectin (PS-Rg) [8] = molecular target: T4, P-selectin (PS-Rg); test: filter; 37 C; 0.01 nM at 4 C; conditions: tags: human IgG1 Fc fusion; chain copies: dimer; label: 32P
E-selectin (ES-Rg) [9] = molecular target: T5, E-selectin (ES-Rg) (Homo sapiens, UniProt P16581 P16581:22-556); test: filter; specificity control; conditions: tags: human IgG1 Fc fusion; chain copies: dimer (inferred); label: 32P
T5 sequence: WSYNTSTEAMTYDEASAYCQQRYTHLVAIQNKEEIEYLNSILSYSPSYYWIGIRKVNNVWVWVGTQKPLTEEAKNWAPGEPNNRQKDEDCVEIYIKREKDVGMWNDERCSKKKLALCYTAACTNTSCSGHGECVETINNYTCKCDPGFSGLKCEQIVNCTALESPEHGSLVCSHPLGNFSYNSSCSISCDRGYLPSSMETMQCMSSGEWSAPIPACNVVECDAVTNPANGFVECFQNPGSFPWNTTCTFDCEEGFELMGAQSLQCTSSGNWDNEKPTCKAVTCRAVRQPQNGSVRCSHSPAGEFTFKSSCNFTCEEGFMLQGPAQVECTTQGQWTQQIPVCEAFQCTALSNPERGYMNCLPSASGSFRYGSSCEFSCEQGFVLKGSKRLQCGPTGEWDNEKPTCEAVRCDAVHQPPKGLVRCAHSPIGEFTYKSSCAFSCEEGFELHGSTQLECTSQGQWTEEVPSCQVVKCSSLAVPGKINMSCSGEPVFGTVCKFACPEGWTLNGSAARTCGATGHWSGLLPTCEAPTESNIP

L-selectin (LS-Rg) [10] = molecular target: T2, L-selectin (LS-Rg); test: filter; 37 C; lacks 7-nt bulge; conditions: tags: human IgG2 Fc fusion; chain copies: dimer; label: 32P; hairpin lacking bulge
Protocol: (§2) As described in SELEX Patent Applications, a nitrocellulose filter partitioning method was used to determine the affinity of RNA ligands for LS-Rg and for other proteins. Filter discs (nitrocellulose/cellulose acetate mixed matrix, 0.45 μm pore size, Millipore) were placed on a vacuum manifold and washed with 3 ml of SHMCK 140 buffer under vacuum. Reaction mixtures, containing ³²P labeled RNA pools and unlabeled LS-Rg, were incubated in SHMCK 140 for 10-20 min at 37° C., and then immediately washed with 3 ml SHMCK 140. The filters were air-dried and counted in a Beckman LS6500 liquid scintillation counter without fluor. Alternatively, binding studies employed 96 well micro-titer manifolds essentially as described in Example 13, paragraph E.
These calculations assume two ligand binding sites per chimera.

soluble L-selectin [11] = molecular target: T3, soluble L-selectin; test: filter; 37 C, soluble L-selectin; conditions: tags: R&D Systems; label: 32P
Protocol: Unless otherwise indicated, all materials used in the 2′-F RNA SELEX against the L-selectin/IgG2 chimera, LS-Rg, were identical to those of Examples 7, paragraph A and 13, paragraph A. SHMCK-140 buffer, used for all SELEX and binding experiments, was 1 mM CaCl₂, 1 mM MgCC₂, 140 mM NaCl, 5 mM KCl. and 20 mM HEPES, pH 7.4. A soluble form of L-selectin, corresponding to the extracellular domains, was purchased from R&D Systems and used for some nitrocellulose filter binding experiments.
as §2

L-selectin (LS-Rg) [12] = molecular target: T2, L-selectin (LS-Rg); test: filter; truncate at base of lower stem; conditions: tags: human IgG2 Fc fusion; chain copies: dimer; hairpin
L-selectin (LS-Rg) [13] = molecular target: T2, L-selectin (LS-Rg); test: filter; upper stem and loop only; conditions: tags: human IgG2 Fc fusion; chain copies: dimer; hairpin
Protocol: as §2
Predictions of minimal high affinity sequences for family 1 ligands can be made and serve as a partial test of the postulated secondary structure.

P-selectin (PS-Rg) [14] = molecular target: T4, P-selectin (PS-Rg); test: filter; 37 C, HSMC; conditions: tags: human IgG1 Fc fusion; chain copies: dimer; label: 32P
E-selectin (ES-Rg) [15] = molecular target: T5, E-selectin (ES-Rg); test: filter; specificity control; conditions: tags: human IgG1 Fc fusion; chain copies: dimer (inferred); label: 32P; remark: listed apart in the source
Protocol: The affinity of P-selectin ligands to ES-Rg, LS-Rg and CD22β-Rg were determined by nitrocellulose partitioning. […] In general, a ligand's affinity for ES-Rg and LS-Rg is at least 10⁴-fold lower than for PS-Rg. […] The specificity of oligonucleotide ligand binding contrasts sharply with the binding of cognate carbohydrates by the selectins and confirms the proposition that SELEX ligands will have greater specificity than carbohydrate ligands.

Binder: TAGCCAAGGTAACCAGTACAAGGTGCTAAACGTAATGGCTTCGGCTTAC (ssDNA) [LD201T1]
- Kd [1]: 3 nM
- IC50 (L-selectin (LS-Rg) [2]): ~3 nM

B1: LD201T1 branched dimer (ssDNA)
DNA: TAGCCAAGGTAACCAGTACAAGGTGCTAAACGTAATGGCTTCGGCTTAC
modifications: two copies linked 3' ends via five-unit ethylene glycol spacers to 3'-3' symmetric linker
- EC50 ([3]; label: 5' fluorescein): ~0.15 nM

Binder: TAGCCAAGGTAACCAGTACAAGGTGCTAAACGTAATGGCTTCGGCTTAC (ssDNA, biotin, multivalent on streptavidin) [bio-LD201T1/streptavidin]
- EC50 ([3]; label: labeled streptavidin): ~0.15 nM

B2: LF1528 (ssRNA)
RNA: GGGAGGACGAUGCGGUUAGGUCAAUGAUCUUAGUUUUCGAUUCGUCAGACGACUCGCCCGA
modifications: 2'-F C and U
- binding result (soluble L-selectin [4]): no binding

Binder: CUCAACGAGCCAGGAACAUCGACGUCAGCAAACGCGAG (ssRNA, 2'-F on all C and U) [PF377s1]
- Kd (P-selectin (PS-Rg) [5]): 0.06 nM
- EC50 [6]: ~0.05 nM

B3: LF1513 (ssRNA)
RNA: GGGAGGACGAUGCGGGCUCUUCAGCAACGUGUUAUCAAGUUAGCCCAGACGACUCGCCCGA
modifications: 2'-F C and U
- Kd [7]: 4 nM

B4: PA350 (ssRNA)
RNA: GGGAGACAAGAAUAAACGCUCAAGCCCCAAACGCAAGUGAGCAUCCGCAACAGGGAAGAAGACAGACGAUUGAUUCGACAGGAGGCUCACAACAGGC
modifications: 2'-NH2 on all C and U
- Kd (P-selectin (PS-Rg) [8]): 0.06 nM
- Kd (E-selectin (ES-Rg) [9]): 375 nM

B5: LF1512 (ssRNA)
RNA: GGGAGGACGAUGCGGCACACGUGUUUUCAAGUGUGCUCCUGGGAUCAGACGACUCGCCCGA
modifications: 2'-F on all C and U
- Kd (L-selectin (LS-Rg) [10]): 315 nM

B6: LF1516 (ssRNA)
RNA: GGGAGGACGAUGCGGUCAUUCUCUAAAAAAGUAUUCCGUACCUCCACAGACGACUCGCCCGA
modifications: 2'-F on all C and U
- Kd (soluble L-selectin [11]): 1.3 nM

Binder: GGUACCUCAAAUUGCGUGUUUUCAAGCAGUAUC (ssRNA, 2'-F on all C and U) [LF1514T4]
- binding signal (L-selectin (LS-Rg) [12]): < 2 fold weaker than LF1514

B7: LF1816 (ssRNA)
RNA: GGGAGGACGAUGCGGUGCUAUUCUUAAGCGGCGUGUAAAUCAAGCUAGAUCAUCGUCAGACGACUCGCCCGA
modifications: 2'-F C and U
- binding result (soluble L-selectin [4]): no binding

Binder: TAGCCATTCACCATGGCCCCTTCCTACGTATGTTCTGCGGGTGGCTTA (ssDNA) [LD174T1]
- IC50 (L-selectin (LS-Rg) [2]): ~3 nM

B8: LF1817 (ssRNA)
RNA: GGGAGGACGAUGCGGUGCUUAAACAACGCGUGAAUCGAGUUCAUCCACUCCUCCUCAGACGACUCGCCCGA
modifications: 2'-F on all C and U
- Kd (soluble L-selectin [11]): 2.3 nM

B9: LF1618 (ssRNA)
RNA: GGGAGGACGAUGCGGUUAGCCUACACUCUAGGUUCAGUUUUCGAAUCUUCCACCGCAGACGACUCGCCCGA
modifications: 2'-F C and U [all C and U 2'-F; W in the 3' fixed region (cagacgacucgcccga) = A]
- Kd [7]: 25 nM

Binder: UGCGUGUUUUCAAGCA (ssRNA, 2'-F on all C and U) [LF1514T1]
- binding signal (L-selectin (LS-Rg) [13]): ≥ 100 fold weaker than LF1514

Binder: AGCTGGCGGTACGGGCCGTGCACCCACTTACCTGGGAAGTGAGCTTA (ssDNA) [LD196T1]
- IC50 (L-selectin (LS-Rg) [2]): ~3 nM

B10: PF377 (ssRNA)
RNA: GGGAGACAAGAAUAAACGCUCAACGAGCCAGGAACAUCGACGUCAGCAAACGCGAGCGCAACCAGUAACACCUUCGACAGGAGGCUCACAACAGGC
modifications: 2'-F on all C and U
- Kd (P-selectin (PS-Rg) [14]): 0.0185 nM
- Kd (E-selectin (ES-Rg) [15]): 2300 nM
